Results taken from patent publication US20180238915A1 (published 2018).

B1: labeled G-CSF (Alexa Fluor 488) (ligand, UniProt P09919-2 31-204, looked up)
chain: TPLGPASSLPQSFLLKCLEQVRKIQGDGAALQEKLCATYKLCHPEELVLLGHSLGIPWAPLSSCPSQALQLAGCLSQLHSGLFLYQGLLQALEGISPELGPTLDTLQLDVADFATTIWQQMEELGMAPALQPTQGAMPAFASAFQRRAGGVLVASHLQSFLEVSYRVLRHLAQP
modifications: Alexa Fluor 488 label (carboxylic acid succinimidyl ester); sites not stated
B2: granulocyte colony stimulating factor (G-CSF) (ligand, UniProt P09919-2 31-204, looked up)
chain: B1 chain
notes: Unlabeled Sandoz G-CSF

Experiments:
[1] = biological target: T1, negatively modulated GCSF receptor (GCSFR(-)) (UniProt Q99062 25-621, limits assumed, modified by S-HyNic and conjugated through HyNic-4FB bonds to a 64-base DNA oligonucleotide (SEQ. ID 2, 5' C12 amino modifier); number and sites not stated); assay: off-rate by negative MCM and electrokinetic concentration; 100 nM labeled drug, 1 uM negatively modulated receptor
T1 construct: Receptor-oligonucleotide conjugate; Receptor known only by catalogue number; also called nGCSFR; nTPR
T1 sequence (looked up): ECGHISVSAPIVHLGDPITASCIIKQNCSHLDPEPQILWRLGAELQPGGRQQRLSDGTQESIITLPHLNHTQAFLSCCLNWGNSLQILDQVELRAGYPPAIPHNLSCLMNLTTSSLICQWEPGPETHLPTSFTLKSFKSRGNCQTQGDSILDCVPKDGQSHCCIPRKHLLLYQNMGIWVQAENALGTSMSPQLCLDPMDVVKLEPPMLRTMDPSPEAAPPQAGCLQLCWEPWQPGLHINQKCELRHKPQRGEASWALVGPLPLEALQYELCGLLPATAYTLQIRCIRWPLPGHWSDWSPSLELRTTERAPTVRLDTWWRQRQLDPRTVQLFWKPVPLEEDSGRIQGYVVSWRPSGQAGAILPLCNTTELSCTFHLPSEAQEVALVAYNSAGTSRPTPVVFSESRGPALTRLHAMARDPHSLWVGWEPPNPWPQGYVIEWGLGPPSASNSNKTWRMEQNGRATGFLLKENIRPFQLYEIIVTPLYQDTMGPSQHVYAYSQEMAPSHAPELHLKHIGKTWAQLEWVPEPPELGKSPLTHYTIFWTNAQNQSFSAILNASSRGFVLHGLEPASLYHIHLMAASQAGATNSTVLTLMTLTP
Experimental: The dissociation rate of drug-receptor binding, koff was measured by monitoring the evolution of the peak of complex and fitting it with the aforementioned derived equation.

[2] = biological target: T2, positively modulated granulocyte colony stimulating factor receptor (pGCSFR) (UniProt Q99062 25-621, limits assumed, C-terminal Lys carries 5-FAM; C-terminal amide (CONH2); N-terminus modified by 6-(BOC-hydrazino)nicotinic acid for conjugation to the receptor; modified by Sulfo-S-4FB and conjugated through a …); assay: direct assay by positive MCM and electrokinetic concentration; 1 nM pGCSFR, 0-81 nM G-CSF, 30 min incubation, 30 V 15 min
T2 construct: Receptor-peptide conjugate; Receptor known only by catalogue number
T2 sequence: T1 sequence (looked up)
T2 sequence (peptide): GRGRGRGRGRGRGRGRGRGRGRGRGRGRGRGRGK
Excerpt: The dose-response curves were plotted by fitting the experimental results with the classic second-order binding model.

dissociative half-life [1] [h]	Kd [2] [nM]	Binder
5.5	–	B1
–	~0.7	B2
